Source: publication doi:10.1101/2022.06.17.496531 (bioRxiv, 2022)

Tests used:
Experiment in all cases: native MS
[1] = target: long neurotoxin 2 from O. hannah (Ophiophagus hannah, UniProt A8N285)
[2] = target: long neurotoxin from N. melanoleuca (Naja melanoleuca, UniProt P0DQQ2)
[3] = target: long neurotoxin 2 from N. melanoleuca (Naja melanoleuca, UniProt P01388)
[4] = target: long neurotoxin 4 from N. naja (Naja naja, UniProt P25672)

Measured: binding result

B1: 2554_01_D11 IgG (antibody, V domains shown)
VH: QVQLVQSGAEVKKPGSSVKVSCKASGGTFSSYAISWVRQAPGQGLEWMGGIIPIFGTANYAQKFQGRVTITADESTSTAYMELRSLRSDDTAVYYCARDNLGYCSGGSCYSDYYYYYMDVWGQGTLVTVSS
VL: NFMLTQPRSVSESPGKTVTISCTRSSGSIGSDYVHWYQQRPGSSPTTVIYEDNQRPSGVPDRFSGSIDSSSNSASLTISGLKTEDEADYYCQSYDRSNHEVVFGGGTKLTVL
binds: [1] | [2] | [3] | [4]
